B1: Hairpin Ribozyme (parent)
chain: GUCCUCUUUCACGUGCGCGUGAAAGAGAGAAGUGAACCAGAGAAACACACGUUGUGGUAUAUUACCUGGUA

Variants of B1 are the subject of this series. The experiment in a line: self-cleavage, relative activity (ratio to wild type); higher = more cleavage; co-transcriptional.
As to GUCCUCUUUCACGUGCGCGUGAAAGAGAGAAGUGAACCAGAGAAACAGACGUUGUGGUAUAUUACAUGGUA, the self-cleavage amounted to 0.131.

As to AUCCUCUUUCACGAGCGCGUGAAAGAGAGAAGUGAACCAGAGAAACACACGUUGUGGUAUAUUACCUGGUA, the self-cleavage was determined as 0.127.

For GUCCUCUUUCACGUGCGCGUGAAAGAGAGAAUUGAACCAGAGAAACUCACGUUGUGGUAUAUUACCUGGUA, the self-cleavage was 0.121.

For GUCCUCUUUUACGUGCGCGUGAAAGAGAGAAGUGAACCAGAGAAAGACACGUUGUGGUAUAUUACCUGGUA, the self-cleavage came to 0.0871.

Take GUCCUCUUUCACGUGCGCGUGAAAAAGAGAAGUGAACCAGAUAAACACACGUUGUGGUAUAUUACCUGGUA: the self-cleavage was 0.186.

With GUCCGCUUUCACGUGCGUGUGAAAGAGAGAAGUGAACCAGAGAAACACACGUUGUGGUAUAUUACCUGGUA, the self-cleavage was 0.243.

On to GUCCUCUUUCACGUGCGCGUGAAAGAGAGAAGUGAACCAGAGAUACACACGUUGUGGUAUAUUACCAGGUA, for which the self-cleavage was determined as 0.143.

On to GUACUCUUUCACGUGCGCGUGAAAGAGACAAGUGAACCAGAGAAACACACGUUGUGGUAUAUUACCUGGUA, for which the self-cleavage stood at 0.102.

With GUCCUCUCUCACGUGCGCGUGAAAGAGAGAAGUGAACCAGAGAAACACAGGUUGUGGUAUAUUACCUGGUA, the self-cleavage amounted to 0.119.

As for GUCCUCUUUCACGUGCGCGUGAAAGAGAGAAGUGAACCAGAGAAACAAACAUUGUGGUAUAUUACCUGGUA, the self-cleavage was 0.106.

Regarding GUCCUCUUUCACGUGCGCGUGAAAGAGAGAAGUGAACCAUAGAAACACACGGUGUGGUAUAUUACCUGGUA, the self-cleavage was found to be 0.172.

Consider GUCCUCUUUCAGGUGCCCGUGAAAGAGAGAAGUGAACCAGAGAAACACACGUUGUGGUAUAUUACCUGGUA, for which the self-cleavage turned out to be 0.842.

On to GCCCUCUUUCACGUGCGCGUGAAAGAGAGAAGUGAACCAGAGAAACACACGUUAUGGUAUAUUACCUGGUA, for which the self-cleavage was determined as 0.134.

As to GUCCGCUUUCACGUGCUCGUGAAAGAGAGAAGUGAACCAGAGAAACACACGUUGUGGUAUAUUACCUGGUA, the self-cleavage is 0.177.

Consider GUCCUCUUUCAUGUGCGCGUGAAAGAGAGAUGUGAACCAGAGAAACACACGUUGUGGUAUAUUACCUGGUA, for which the self-cleavage was determined as 0.112.

Turning to GUCCUCUUUCACGUGCGCGUGAAAGAGAGAAGUGAACCAGAGAAACACACGUUGUGGUAUAUUCCCUGGUC, the self-cleavage is 0.28.

Regarding UUCCUCUUUCAGGUGCGCGUGAAAGAGAGAAGUGAACCAGAGAAACACACGUUGUGGUAUAUUACCUGGUA, the self-cleavage came to 0.171.

As for GUCCCCUUUCACGUGCGCGUGAAAGAGAGAAGUGAACCAGAGAAACACACGCUGUGGUAUAUUACCUGGUA, the self-cleavage amounted to 0.636.

In the case of GUCCUCUUUUACGUGCGCGUGAAAGAGAGAAGUGAACCAGAGAAACACACCUUGUGGUAUAUUACCUGGUA, the self-cleavage turned out to be 0.783.

Regarding GUCCUCUUUCACGUGCGCGUGAAAGAGAGAAGUGAACCAGAGAAACACACGUUGUGGUACAUUACUUGGUA, the self-cleavage amounted to 0.451.

In the case of GUCCUCUUCCACGUGCGCGUGAAAGAGAGAAGUGAACCAGAGAACCACACGUUGUGGUAUAUUACCUGGUA, the self-cleavage is 0.121.

As for GUCCUCUUUCAUGUGCGUGUGAAAGAGAGAAGUGAACCAGAGAAACACACGUUGUGGUAUAUUACCUGGUA, the self-cleavage came out at 0.978.

Consider GUCCUCAUUCACGUGCGCGUGAAAGAGAGAAGUGAACCAGAGAGACACACGUUGUGGUAUAUUACCUGGUA, for which the self-cleavage is 0.201.

With GUCCUCUUUCACGUGCGCGUGAGAGAGAGAAGUGAACCAGAGAAACACACGUUGUGGUAUAUUACUUGGUA, the self-cleavage worked out at 0.456.

Consider GUCAUCUUUCACGUGCGCGUGAAAGAGAGAAGUGAACCGGAGAAACACACGUUGUGGUAUAUUACCUGGUA, for which the self-cleavage turned out to be 0.134.

GUCCUAUUUCACGUGCGCGUGAAAGAGAGAAGUGAACAAGAGAAACACACGUUGUGGUAUAUUACCUGGUA: the self-cleavage was determined as 0.141.

Take GUCCUCUUUCACGUGCGCGGGAAAGAGAGAAGUGAACCAGAGAAACACACGUUGUGGUAUAUUACCUGGCA: the self-cleavage worked out at 0.783.

As to GUCCUCUUUCAAGUGCGCGUGAAAGAGAGAAGUGAACCCGAGAAACACACGUUGUGGUAUAUUACCUGGUA, the self-cleavage amounted to 0.397.

Regarding GUCCUCUUUCACGUGCGCGUGAAAGAGAGAAGGGCACCAGAGAAACACACGUUGUGGUAUAUUACCUGGUA, the self-cleavage came to 0.333.

For GUCCUCUAUCACGUGCGCGUGAAUGAGAGAAGUGAACCAGAGAAACACACGUUGUGGUAUAUUACCUGGUA, the self-cleavage amounted to 0.571.

On to GUCCUCUUUCACGUGUGCGUGAAAGAGAGAAGUGAACCAGAGAAACACACGUGGUGGUAUAUUACCUGGUA, for which the self-cleavage came out at 1.05.

In the case of GUCCUCUUUCACGUGCGCGAGGAAGAGAGAAGUGAACCAGAGAAACACACGUUGUGGUAUAUUACCUGGUA, the self-cleavage is 0.587.

Consider GUCCUCUUUCACGAGCGCGUGAAAGAGAGAAGUGAACCAGAGAAACACACGUUGUGGUAUAUUACCAGGUA, for which the self-cleavage came out at 0.188.

For GUCCUCUUUCACGUGCGAGUGAAAGAGAGAAGUGAACCAGAGAAACACACGUUGUGGUAUAUUACCUGGUA, the self-cleavage worked out at 1.06.

Take GACCUCUUUCACGUGCGCGUGAAAGAGAGAAGUGAACCAGAGAAACACACGUUGUGGUAUAUUACCUUGUA: the self-cleavage is 0.133.

On to GUCCUCUUUCACGUGCGCGUGAAAGAGAGAAGUGAACCAGAGAAAGACACGUUUUGGUAUAUUACCUGGUA, for which the self-cleavage is 0.119.

For the variant GUCCUCUUUCACGUGCGCCUGAAAGAGAGAAGUGAACCAGAGAAACACACGUUGUGGUAUAUUACCUGGAA, the self-cleavage came to 0.673.

Regarding GUCCUCUUUCACGUGCGCGUGAAAGAUAGAAGUGAACCAGAGAAACACACGUUGUGGUAUAUUAUCUGGUA, the self-cleavage turned out to be 0.125.

Consider GUCCUCUUCCACGUGCGCGUGAAAGAGAGAAGUGAACCAGAGAAAGACACGUUGUGGUAUAUUACCUGGUA, for which the self-cleavage is 0.167.

GUCCUCUUUCACGUGCGCGUGAAAGAGAGAAGUGAACCAGUGAAACACACGUUGUGGUAUAUUACGUGGUA: the self-cleavage is 0.172.

For the variant GUCCUCUUUCACGAGCGCGUGAAAGAGAGAAGUGAACCAGAGAAACACACGUUGUGGUAUAUUAGCUGGUA, the self-cleavage turned out to be 0.323.

On to GUCCUGUUUCACGUGCGCGUGAAAGAGAGAAGUGAACCAGAGAAACACAUGUUGUGGUAUAUUACCUGGUA, for which the self-cleavage was 0.265.

GUCCUCUUUCACGUGCGCGUGAAAGAGAGAAGUGAACCAGGGAAACACACGUUGUGGCAUAUUACCUGGUA: the self-cleavage is 0.911.

As for GUCCUCUUUCACGUGCGCGUGAAAGCGAGAAGUGAACCAGAGAAACACACGUUGUGGUAUAUUACCUGGCA, the self-cleavage was 0.728.

Consider GUCCUCUUUCAAGUGCGCGUGAAAGAGAGAAGUGAACCAGAGAAACACACGUUGUGGUAUAUUACCUGUUA, for which the self-cleavage was 0.251.

With GUCCUCUUUCACGAGCGCGUGAAAGAGAGAAGUGAACCAGACAAACACACGUUGUGGUAUAUUACCUGGUA, the self-cleavage was 0.281.

Turning to GUCCUCUUUCACGUGCGCGUGAAAGAGAGAAGUGAACCAGAGAAACACACGUUAUGGUUUAUUACCUGGUA, the self-cleavage stood at 0.148.

Take GUCCUCUUUCACGUGCGCGUGAAAGAGAGAAGUGAACCAGAGAAACACAUGUAGUGGUAUAUUACCUGGUA: the self-cleavage is 0.335.

As to GUCCUCUUUCACGUGCACGUGAAAGAGAGACGUGAACCAGAGAAACACACGUUGUGGUAUAUUACCUGGUA, the self-cleavage came to 0.144.

As to GUCCUCUUUCACGUGCGCGUGAAAGAGAGAAGUGAGCCAGAGAAACACACGUUGUGGUAAAUUACCUGGUA, the self-cleavage worked out at 0.779.

As to GUCCUCUUUCACGUGCGCGUGAAAGAGAGAAGUGAACCAGAGAAACACACGUUUUGGUAUAUUACAUGGUA, the self-cleavage was found to be 0.228.

In the case of GUCCUCUUUCACGUGCGUGUGAAAGAGAGAAGUGAACCAGAGAAACACACGUUGUGGUAUAUUACCUAGUA, the self-cleavage came out at 0.224.

As to GUCCUCCUUCACGUCCGCGUGAAAGAGAGAAGUGAACCAGAGAAACACACGUUGUGGUAUAUUACCUGGUA, the self-cleavage was 0.948.

Regarding GUCCUCUUUCACGUGCGCGUGAAAGAGAGAAGUGAACCAGAGAGACACACGUUGUGGUACAUUACCUGGUA, the self-cleavage was found to be 0.0999.

For the variant GUCCUCUUUCACGUGCGCGUGAAAGAGAGAACUGAACCAGAGAAACACACGUUGUGGUAUAUUAUCUGGUA, the self-cleavage came to 0.0495.

Take GUCCUCGUUCACGUGCGCGUGAAAGAGAGAAGUGAACCAGAGAAACACACGUUCUGGUAUAUUACCUGGUA: the self-cleavage was determined as 0.41.

For GUCCUCUUUCACGUGCGCGUGAAAGAGAAAAGUGAACCAGAGAAACACACGUUGUGGUAUAUUACCUGAUA, the self-cleavage came out at 0.117.

As for GUCCUCUUUCACGUGCGCGUGAAAGACAGAAGUGAACCAGAGAAACACACGUUGUGGUAUAUUACCUCGUA, the self-cleavage came out at 0.0698.

Regarding GUCUUCUUUCAGGUGCGCGUGAAAGAGAGAAGUGAACCAGAGAAACACACGUUGUGGUAUAUUACCUGGUA, the self-cleavage came to 0.259.

With GUCCUCUUACACGUGCGCGUGAAAGAGAGAAGUGAACCACAGAAACACACGUUGUGGUAUAUUACCUGGUA, the self-cleavage worked out at 0.133.

For the variant GUCCUCUUACACGUGCGCGUGAAAGAGAGAAGUGAACCAGAGAAACCCACGUUGUGGUAUAUUACCUGGUA, the self-cleavage amounted to 0.205.

GUCCUCUUUCACGUGCGCGUGAAAGAGAGAAGUGAACCGGAGAAACACACGUUGUGGUAUAUAACCUGGUA: the self-cleavage was determined as 0.111.

In the case of GUCGUCUUUCACGUGCGCGUGAAAGAGAGAAGUGAACCAGAGAAACACACGUUGUGGUAUAAUACCUGGUA, the self-cleavage worked out at 0.191.

In the case of GUCCUCUUUCACGGGCGCGUGAACGAGAGAAGUGAACCAGAGAAACACACGUUGUGGUAUAUUACCUGGUA, the self-cleavage was 0.887.

For the variant GUCCUCUUUCCCGUGCGCGUGAAAGAGAGGAGUGAACCAGAGAAACACACGUUGUGGUAUAUUACCUGGUA, the self-cleavage was determined as 0.0919.

Take GUUCUCUUUCACGUGCGCGUGAAAGAGAGACGUGAACCAGAGAAACACACGUUGUGGUAUAUUACCUGGUA: the self-cleavage came to 0.267.

For the variant GUCCUCUUUCACGUGCGCGUGAAAGAGAGAAGUCAACCAGAGAAACACACGUUGUGGUAUAUUACCUGGUA, the self-cleavage turned out to be 1.4.

As to GUCCUCUUUCACGUGAGCGUGAAAGAGAGAAGUGAACCAGAGAAACACACGUUGUGUUAUAUUACCUGGUA, the self-cleavage is 0.242.

Turning to GGCCUCUUUCACGUGCGCGUGAAAGAGAGAAGUGAACCAGAGAAACACACGUUGUGGUAUAUUACCUAGUA, the self-cleavage worked out at 0.166.

Turning to GUCCUCUUUCACGUGCGCGUGAAAGAGAGAAGCGAACCAGAGAAACACACGUUGUGGUACAUUACCUGGUA, the self-cleavage is 0.128.

For the variant GUCCUCUUUCACGUGCGCGUGAAAGAGAGAAGUGAACCAGAGAAACACGCGUUGUGUUAUAUUACCUGGUA, the self-cleavage was 0.22.

With GUCCUCUUUCACGUGCGCGUGACCGAGAGAAGUGAACCAGAGAAACACACGUUGUGGUAUAUUACCUGGUA, the self-cleavage turned out to be 0.718.

In the case of GUCAUCUUUCACGUGCGCGUGAAAGAGAGAAGUGAACCAGAGAAACACACGUUGUGGUAUAUUACUUGGUA, the self-cleavage was determined as 0.136.

In the case of GUCCUCUUUCACGUGCGCGUGAAAGAGAGAAGUGAAACAGAGAAACACACGUUGUGGUAAAUUACCUGGUA, the self-cleavage was found to be 0.303.

For GUCCUCUUUCACGUGCUCGUGAAAGAGAGAAGUGAACAAGAGAAACACACGUUGUGGUAUAUUACCUGGUA, the self-cleavage was found to be 0.136.

For GUCCUCUUUCACGUGCGCGUGAAUGAGAAAAGUGAACCAGAGAAACACACGUUGUGGUAUAUUACCUGGUA, the self-cleavage worked out at 0.146.

Source of the values: the RNAGym collection of RNA variant scans (doi:10.7554/elife.80360).
